The target in assay [1] is T1, CHRD (aa 449–693) of human PCSK9, 6xHis-tagged (human, UniProt Q8NBP7, biotinylated where it was immobilised for BLI (site not told)).
T1 construct: human PCSK9, C-terminal Cys/His-rich domain, aa 449-693 as printed (modules M1 453-529, M2 530-603, M3 604-692); also called C-terminal Cys/His-rich domain; CHRD alone; source: FreeStyle293 FS cells, transfected, purified (NiNTA, size-exclusion chromatography)
Description: BLI; biotinylated P1.40 immobilised (0.25 μg/μL), PCSK9 or CHRD in solution, pH 7.5, 1:1 binding model; association 3600 s (PCSK9) or 1800 s (CHRD), dissociation 3600 s. The conditions noted are these: both partners purified.

The target in assay [2] is T2, Human PCSK9 (full length), 6xHis-tagged, purified (human, UniProt Q8NBP7, biotinylated where it was immobilised for BLI (site not told)).
T2 construct: human PCSK9, full length cDNA in pIRES2-EGFP; also called full-length PCSK9; proprotein convertase substilisin kexin 9; source: FreeStyle293 FS cells, transfected, purified (NiNTA, size-exclusion chromatography)
Described as above. The conditions noted are these: both partners purified.

In assay [3] the target is T2, Human PCSK9 (full length), …. Description: SEC + other: SAXS; size exclusion chromatography followed by small angle X-ray scattering of PCSK9 alone or in complex with P1.40, in solution. The conditions noted are these: both partners purified.
The next assay addresses T3, CHRD R476A mutant (Homo sapiens (Human)., UniProt Q8NBP7, R476A).
T3 construct: human PCSK9 CHRD, aa 449-693 as printed for the parent construct; source: HEK293 cells
Description: flow cytometry on cells; P1.40 or its mutants expressed on yeast cells (HA-tagged), 6xHis-tagged CHRD or its mutants in solution; cell binding assays and FACS sorting for deep mutational scanning. As to conditions: one partner purified.

The target of the next assay is T4, CHRD D480A mutant (Homo sapiens (Human)., UniProt Q8NBP7, D480A).
T4 construct: human PCSK9 CHRD, aa 449-693 as printed for the parent construct; source: HEK293 cells
Described as above. The conditions noted are these: one partner purified.

The next assay deals with T5, CHRD F456A mutant (Homo sapiens (Human)., UniProt Q8NBP7, F456A).
T5 construct: human PCSK9 CHRD, aa 449-693 as printed for the parent construct; source: HEK293 cells
Described as above. The conditions noted are these: one partner purified.

Assay [4] has as its target T6, Human CAP1 (cyclase associated protein 1), 6xHis-tagged, purified (human, UniProt Q01518 1-475, biotinylated where it was immobilised for BLI (site not told)).
T6 construct: human adenylyl cyclase-associated protein 1 (CAP1), cDNA cloned into pCMV; also called adenylyl cyclase-associated protein 1; biotinylated CAP1; source: FreeStyle293 FS cells, transfected, purified (NiNTA, size-exclusion chromatography)
Description: BLI; biotinylated PCSK9 or biotinylated CHRD immobilised (0.2 μg/ml), CAP1 in solution, pH 7.5, association and dissociation 600 s. As to conditions: both partners purified.

The record followed here is article PMC9816786 (Molecular Metabolism, 2022).

T6 sequence (Q01518 whole entry): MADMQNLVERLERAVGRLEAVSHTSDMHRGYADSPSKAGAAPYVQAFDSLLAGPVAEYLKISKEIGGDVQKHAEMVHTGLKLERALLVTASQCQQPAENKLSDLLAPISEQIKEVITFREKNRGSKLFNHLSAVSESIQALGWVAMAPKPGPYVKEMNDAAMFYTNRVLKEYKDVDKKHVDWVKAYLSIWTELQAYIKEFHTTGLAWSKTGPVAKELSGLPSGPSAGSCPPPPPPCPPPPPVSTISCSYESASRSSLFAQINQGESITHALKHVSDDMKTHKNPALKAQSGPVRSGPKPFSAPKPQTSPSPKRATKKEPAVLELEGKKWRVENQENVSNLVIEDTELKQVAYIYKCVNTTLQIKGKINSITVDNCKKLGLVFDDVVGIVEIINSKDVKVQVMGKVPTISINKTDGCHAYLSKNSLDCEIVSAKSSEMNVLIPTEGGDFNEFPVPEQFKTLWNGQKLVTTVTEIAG

B1: P1.40, CHRD-specific single domain antibody (nanobody), purified from E. coli (VHH)
VHH: QVKLEESGGGLVQAGGSLRLSCSPSDRTFSAYAMGWFRQVPGREREFVATIRDSDASIYYTDSVKGRFTISRDNAKNTVYLQMNSLIPDDTAVYYCAARQYYSGRVYSTFREEYDYWGQGTQVTVSS
notes: TEV site ENLYFQ/G: a glycine may be left at the N-terminus after cleavage; also called nanobody P1.40; biotinylated P1.40; source: E. coli BL21 (DE3) pLysS, purified (HisTrap, TEV cleavage, size-exclusion chromatography); not shown: DsbC, N-terminal, cleaved; His6, N-terminal, cleaved
Turning to B1, in assay [1], the Kd is 0.0903 nM, the off-rate (koff) was found to be 3.5e-05 s⁻¹ and the on-rate constant (kon) turned out to be 380000 M⁻¹ s⁻¹. In assay [2], this molecule gave an equilibrium dissociation constant (Kd) of 5.6 nM, a koff of 9e-06 s⁻¹ and a kon of 1600 M⁻¹ s⁻¹. The “stoichiometry N” value in assay [3] turned out to be 1.

B2: P1.40 expressed on yeast cells (cell surface, HA-tagged) (VHH)
VHH: B1 VHH
B2: the results for the “fold decrease of affinity against wild-type CHRD” value with CHRD R476A mutant, in the assay with CHRD D480A mutant and with CHRD F456A mutant were 17 fold, 142 fold and 12 fold, respectively.

B3: CHRD (aa 449–693) of human PCSK9, 6xHis-tagged (domain or fragment, UniProt Q8NBP7 449-692, looked up)
chain: HGAGWQLFCRTVWSAHSGPTRMATAVARCAPDEELLSCSSFSRSGKRRGERMEAQGGKLVCRAHNAFGGEGVYAIARCCLLPQANCSVHTAPPAEASMGTRVHCHQQGHVLTGCSSHWEVEDLGTHKPPVLRPRGQPNQCVGHREASIHASCCHAPGLECKVKEHGIPAPQEQVTVACEEGWTLTGCSALPGTSHVLGAYAVDNTCVVRSRDVSTTGSTSEGAVTAVAICCRSRHLAQASQELQ
modifications: biotinylated where it was immobilised for BLI (site not told)
notes: human PCSK9, C-terminal Cys/His-rich domain, aa 449-693 as printed (modules M1 453-529, M2 530-603, M3 604-692); also called C-terminal Cys/His-rich domain; CHRD alone; source: FreeStyle293 FS cells, transfected, purified (NiNTA, size-exclusion chromatography)
Turning to B3, in assay [4], the dissociation constant (Kd) amounted to 1260 nM, the off-rate constant (koff) amounted to 0.0007 s⁻¹ and the on-rate (kon) amounted to 560 M⁻¹ s⁻¹.
